According to the supplement of paper PMC9233669:
Fewer inactive variants are shown than the library holds.

Experiments:
biotinyl-Val-oxazolone = assay: self-aminoacylation, catalytic enhancement (BVO) (fold over background); higher = more active; k-Seq, kA / k0A0; sequences stand for … in GGGAAUGGAUCCACAUCUACGAAUUC…UUCACUGCAGACUUGACGAAGCUG
Summary of the method: (§1)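 Catalytic enhancement equals the median kA over the uncatalyzed rate, the latter read from the low-activity peak of a bimodal Gaussian fit. Values of kA came from fitting each sequence's fraction reacted to a pseudo-first-order model, with 1000 bootstraps. Reacted RNA was captured with streptavidin and quantified by triplicate qPCR and Illumina sequencing after 90 minutes at room temperature with 2–1250 μM biotinyl-aminoacyl-oxazolone and 0.43 μM mutagenized RNA pools bearing a 21-nt variable region.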

biotinyl-Leu-oxazolone = assay: self-aminoacylation, catalytic enhancement (BLO) (fold over background); higher = more active; k-Seq, kA / k0A0; sequences stand for … in GGGAAUGGAUCCACAUCUACGAAUUC…UUCACUGCAGACUUGACGAAGCUG
Summary of the method: as §1

biotinyl-Phe-oxazolone = assay: self-aminoacylation, catalytic enhancement (BFO) (fold over background); higher = more active; k-Seq, kA / k0A0; sequences stand for … in GGGAAUGGAUCCACAUCUACGAAUUC…UUCACUGCAGACUUGACGAAGCUG
Summary of the method: as §1

biotinyl-Trp-oxazolone = assay: self-aminoacylation, catalytic enhancement (BWO) (fold over background); higher = more active; k-Seq, kA / k0A0; sequences stand for … in GGGAAUGGAUCCACAUCUACGAAUUC…UUCACUGCAGACUUGACGAAGCUG
Summary of the method: as §1

biotinyl-Met-oxazolone = assay: self-aminoacylation, catalytic enhancement (BMO) (fold over background); higher = more active; k-Seq, kA / k0A0; sequences stand for … in GGGAAUGGAUCCACAUCUACGAAUUC…UUCACUGCAGACUUGACGAAGCUG
Summary of the method: as §1

**Q.** Which results are given for “AUUACACUGGUCAUGGAGUGA [Fam2.1 aminoacylation ribozyme variant]”?
**A.** self-aminoacylation (biotinyl-Val-oxazolone): 2; self-aminoacylation (biotinyl-Leu-oxazolone): 2.48; self-aminoacylation (biotinyl-Phe-oxazolone): 2.95; self-aminoacylation (biotinyl-Trp-oxazolone): 2.06; self-aminoacylation (biotinyl-Met-oxazolone): 2.63

**Q.** What does the source list for “AUUACCCUGCUCAUCGUGUGA [Fam2.1 aminoacylation ribozyme variant]”?
**A.** self-aminoacylation (biotinyl-Leu-oxazolone): 2.85; self-aminoacylation (biotinyl-Phe-oxazolone): 14.7; self-aminoacylation (biotinyl-Trp-oxazolone): 3.19; self-aminoacylation (biotinyl-Met-oxazolone): 2.7

**Q.** How did the self-aminoacylation (biotinyl-Leu-oxazolone) turn out when “AUUACCCUGGCCAACGAGUGA [Fam2.1 aminoacylation ribozyme variant]” was run?
**A.** The self-aminoacylation was 3.31.

**Q.** And the self-aminoacylation (biotinyl-Phe-oxazolone)?
**A.** Its self-aminoacylation is 21.

**Q.** What about the self-aminoacylation (biotinyl-Trp-oxazolone) of the same sequence?
**A.** The self-aminoacylation was 5.43.

**Q.** And the self-aminoacylation (biotinyl-Met-oxazolone)?
**A.** Its self-aminoacylation is 2.75.

**Q.** With “AUUACCCUGGUCAGCGAGUGG [Fam2.1 aminoacylation ribozyme variant]” as the sequence, how does the self-aminoacylation (biotinyl-Leu-oxazolone) read?
**A.** Its self-aminoacylation is 2.51.

**Q.** What about the self-aminoacylation (biotinyl-Phe-oxazolone) of the same sequence?
**A.** Its self-aminoacylation is 2.26.

**Q.** And the self-aminoacylation (biotinyl-Trp-oxazolone)?
**A.** The self-aminoacylation was 2.61.

**Q.** And the self-aminoacylation (biotinyl-Met-oxazolone)?
**A.** The self-aminoacylation was 2.51.

**Q.** “AUUACCCUGGUCAUCGCGUCA [Fam2.1 aminoacylation ribozyme variant]” was tested. Which self-aminoacylation (biotinyl-Val-oxazolone) did it give?
**A.** Its self-aminoacylation is 2.03.

**Q.** What about the self-aminoacylation (biotinyl-Leu-oxazolone) of the same sequence?
**A.** Its self-aminoacylation is 2.14.

**Q.** And the self-aminoacylation (biotinyl-Phe-oxazolone)?
**A.** Its self-aminoacylation is 12.2.

**Q.** And the self-aminoacylation (biotinyl-Trp-oxazolone)?
**A.** Its self-aminoacylation is 2.27.

**Q.** What about the self-aminoacylation (biotinyl-Met-oxazolone) of the same sequence?
**A.** Its self-aminoacylation is 2.38.

**Q.** How did the self-aminoacylation (biotinyl-Leu-oxazolone) turn out when “AUUACCCUGGUCAUCUCGUGA [Fam2.1 aminoacylation ribozyme variant]” was run?
**A.** Its self-aminoacylation is 2.62.

**Q.** And the self-aminoacylation (biotinyl-Phe-oxazolone)?
**A.** Its self-aminoacylation is 12.4.

**Q.** What about the self-aminoacylation (biotinyl-Trp-oxazolone) of the same sequence?
**A.** Its self-aminoacylation is 2.81.

**Q.** And the self-aminoacylation (biotinyl-Met-oxazolone)?
**A.** The self-aminoacylation was 2.37.

**Q.** Which results are given for “AUUACCCUGGUUAUCAAGUGA [Fam2.1 aminoacylation ribozyme variant]”?
**A.** self-aminoacylation (biotinyl-Leu-oxazolone): 2.53; self-aminoacylation (biotinyl-Phe-oxazolone): 4.14; self-aminoacylation (biotinyl-Trp-oxazolone): 3.4; self-aminoacylation (biotinyl-Met-oxazolone): 2.67

**Q.** Which results are given for “AUUACCGUGGUCAUCAAGUGA [Fam2.1 aminoacylation ribozyme variant]”?
**A.** self-aminoacylation (biotinyl-Leu-oxazolone): 3.05; self-aminoacylation (biotinyl-Phe-oxazolone): 4.54; self-aminoacylation (biotinyl-Trp-oxazolone): 3.6; self-aminoacylation (biotinyl-Met-oxazolone): 2.83

**Q.** With “AUUACGCUCGUCAUCGAGUGA [Fam2.1 aminoacylation ribozyme variant]” as the sequence, how does the self-aminoacylation (biotinyl-Leu-oxazolone) read?
**A.** The self-aminoacylation was 2.5.

**Q.** And the self-aminoacylation (biotinyl-Phe-oxazolone)?
**A.** The self-aminoacylation was 3.68.

**Q.** And the self-aminoacylation (biotinyl-Trp-oxazolone)?
**A.** The self-aminoacylation was 2.54.

**Q.** And the self-aminoacylation (biotinyl-Met-oxazolone)?
**A.** Its self-aminoacylation is 2.09.

**Q.** “AUUAGCCUGCUCAUCGAGUGA [Fam2.1 aminoacylation ribozyme variant]” was tested. Which self-aminoacylation (biotinyl-Leu-oxazolone) did it give?
**A.** Its self-aminoacylation is 2.92.

**Q.** What about the self-aminoacylation (biotinyl-Phe-oxazolone) of the same sequence?
**A.** The self-aminoacylation was 12.2.

**Q.** What about the self-aminoacylation (biotinyl-Trp-oxazolone) of the same sequence?
**A.** The self-aminoacylation was 4.65.

**Q.** What about the self-aminoacylation (biotinyl-Met-oxazolone) of the same sequence?
**A.** Its self-aminoacylation is 3.42.

**Q.** Which self-aminoacylation (biotinyl-Leu-oxazolone) does the source give for “AUUCACCUAGGACAACGGGUG [Fam2.2 aminoacylation ribozyme variant]” here?
**A.** The self-aminoacylation was 3.72.

**Q.** What about the self-aminoacylation (biotinyl-Phe-oxazolone) of the same sequence?
**A.** Its self-aminoacylation is 25.7.

**Q.** What about the self-aminoacylation (biotinyl-Trp-oxazolone) of the same sequence?
**A.** Its self-aminoacylation is 2.92.

**Q.** What about the self-aminoacylation (biotinyl-Met-oxazolone) of the same sequence?
**A.** Its self-aminoacylation is 3.6.

**Q.** Which results are given for “AUUCACCUAGGUCAACUGGUG [Fam2.2 aminoacylation ribozyme variant]”?
**A.** self-aminoacylation (biotinyl-Leu-oxazolone): 3.35; self-aminoacylation (biotinyl-Phe-oxazolone): 15.9; self-aminoacylation (biotinyl-Trp-oxazolone): 2.21; self-aminoacylation (biotinyl-Met-oxazolone): 2.69

**Q.** How did the self-aminoacylation (biotinyl-Val-oxazolone) turn out when “AUUCACCUAGGUCACCGGGUC [Fam2.2 aminoacylation ribozyme variant]” was run?
**A.** The self-aminoacylation was 2.18.

**Q.** How did the self-aminoacylation (biotinyl-Val-oxazolone) turn out when “AUUCACCUAGGUUAUCGGGGG [Fam2.2 aminoacylation ribozyme variant]” was run?
**A.** The self-aminoacylation was 2.01.

**Q.** And the self-aminoacylation (biotinyl-Leu-oxazolone)?
**A.** Its self-aminoacylation is 2.29.

**Q.** What about the self-aminoacylation (biotinyl-Phe-oxazolone) of the same sequence?
**A.** The self-aminoacylation was 6.72.

**Q.** And the self-aminoacylation (biotinyl-Trp-oxazolone)?
**A.** Its self-aminoacylation is 2.02.

**Q.** For “AUUCACCUAUGUCAUUGGGUG [Fam2.2 aminoacylation ribozyme variant]”, which self-aminoacylation (biotinyl-Leu-oxazolone) is on record?
**A.** The self-aminoacylation was 2.34.

**Q.** And the self-aminoacylation (biotinyl-Phe-oxazolone)?
**A.** Its self-aminoacylation is 9.21.

**Q.** What about the self-aminoacylation (biotinyl-Trp-oxazolone) of the same sequence?
**A.** Its self-aminoacylation is 2.13.

**Q.** And the self-aminoacylation (biotinyl-Met-oxazolone)?
**A.** Its self-aminoacylation is 2.03.

**Q.** With “AUUCACUUAGAUCAUCGGGUG [Fam2.2 aminoacylation ribozyme variant]” as the sequence, how does the self-aminoacylation (biotinyl-Leu-oxazolone) read?
**A.** The self-aminoacylation was 2.57.

**Q.** What about the self-aminoacylation (biotinyl-Phe-oxazolone) of the same sequence?
**A.** Its self-aminoacylation is 10.8.

**Q.** What about the self-aminoacylation (biotinyl-Trp-oxazolone) of the same sequence?
**A.** Its self-aminoacylation is 2.82.

**Q.** What about the self-aminoacylation (biotinyl-Met-oxazolone) of the same sequence?
**A.** Its self-aminoacylation is 2.14.

**Q.** With “AUUCACUUAGGUAAUCGGGUG [Fam2.2 aminoacylation ribozyme variant]” as the sequence, how does the self-aminoacylation (biotinyl-Leu-oxazolone) read?
**A.** The self-aminoacylation was 3.33.

**Q.** And the self-aminoacylation (biotinyl-Phe-oxazolone)?
**A.** The self-aminoacylation was 19.6.

**Q.** What about the self-aminoacylation (biotinyl-Trp-oxazolone) of the same sequence?
**A.** The self-aminoacylation was 2.72.

**Q.** And the self-aminoacylation (biotinyl-Met-oxazolone)?
**A.** The self-aminoacylation was 3.11.

**Q.** Which self-aminoacylation (biotinyl-Val-oxazolone) does the source give for “CCACACCUCAAGCAAUCGGCC [Fam1B.1 aminoacylation ribozyme variant]” here?
**A.** The self-aminoacylation was 2.42.

**Q.** What about the self-aminoacylation (biotinyl-Trp-oxazolone) of the same sequence?
**A.** The self-aminoacylation was 2.61.

**Q.** With “CCACACUUCAAGCAAACGGGC [Fam1B.1 aminoacylation ribozyme variant]” as the sequence, how does the self-aminoacylation (biotinyl-Val-oxazolone) read?
**A.** Its self-aminoacylation is 2.03.

**Q.** Which self-aminoacylation (biotinyl-Val-oxazolone) does the source give for “CCACACUUCAAGCAACCGCUC [Fam1B.1 aminoacylation ribozyme variant]” here?
**A.** Its self-aminoacylation is 2.09.

**Q.** And the self-aminoacylation (biotinyl-Phe-oxazolone)?
**A.** The self-aminoacylation was 8.07.

**Q.** How did the self-aminoacylation (biotinyl-Val-oxazolone) turn out when “CCACACUUCAAGCAACCGGUU [Fam1B.1 aminoacylation ribozyme variant]” was run?
**A.** The self-aminoacylation was 2.04.

**Q.** What does the source list for “CCACACUUCAAGCAAUCGGCG [Fam1B.1 aminoacylation ribozyme variant]”?
**A.** self-aminoacylation (biotinyl-Val-oxazolone): 2.18; self-aminoacylation (biotinyl-Trp-oxazolone): 2.05; self-aminoacylation (biotinyl-Met-oxazolone): 2.16

**Q.** How did the self-aminoacylation (biotinyl-Val-oxazolone) turn out when “CCACACUUCACGCAAUCGCUC [Fam1B.1 aminoacylation ribozyme variant]” was run?
**A.** Its self-aminoacylation is 2.19.

**Q.** Which results are given for “CCACCCUUCAAGCAAUCGGCC [Fam1B.1 aminoacylation ribozyme variant]”?
**A.** self-aminoacylation (biotinyl-Val-oxazolone): 2.39; self-aminoacylation (biotinyl-Phe-oxazolone): 3.03; self-aminoacylation (biotinyl-Trp-oxazolone): 3.11

**Q.** For “CCACCCUUCAAGCAUUCGGUC [Fam1B.1 aminoacylation ribozyme variant]”, which self-aminoacylation (biotinyl-Val-oxazolone) is on record?
**A.** The self-aminoacylation was 2.56.

**Q.** Which results are given for “CCCCACUUCAAACAAUCGGUC [Fam1B.1 aminoacylation ribozyme variant]”?
**A.** self-aminoacylation (biotinyl-Val-oxazolone): 2.15; self-aminoacylation (biotinyl-Leu-oxazolone): 2.83; self-aminoacylation (biotinyl-Phe-oxazolone): 140; self-aminoacylation (biotinyl-Trp-oxazolone): 61.2

**Q.** Which results are given for “CCCCACUUGAAGCAAUCGGUC [Fam1B.1 aminoacylation ribozyme variant]”?
**A.** self-aminoacylation (biotinyl-Val-oxazolone): 2.23; self-aminoacylation (biotinyl-Trp-oxazolone): 2.12

**Q.** What does the source list for “CCGCCCUUCAAGCAAUCGGUC [Fam1B.1 aminoacylation ribozyme variant]”?
**A.** self-aminoacylation (biotinyl-Val-oxazolone): 2.62; self-aminoacylation (biotinyl-Leu-oxazolone): 2.13; self-aminoacylation (biotinyl-Phe-oxazolone): 38.9; self-aminoacylation (biotinyl-Trp-oxazolone): 29.9
